± gives the standard deviation of the averaged measurements.

Series [1] has as its system Saccharomyces cerevisiae. As to the kind of experiment: protein stability index of tFT-peptide fusion in deletion strain of DAS1 (PSI (0-1 scale)); higher = more stable (slower turnover). As for the experimental part:
(§1)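 MPS profiling in S. cerevisiae of two library types built from selected 12-aa C-degron peptides (IN1, IN2, LN1, LN3, VN2, R1-R5, W1-W3, Atg1 and Rpa12 C-termini): saturation mutagenesis libraries and C-terminal +1 capping libraries (13 aa). Each peptide is fused to the C-terminus of a sfGFP-mCherry timer, after a GGGS linker. Cells are FACS-sorted into 8 mCherry/sfGFP bins and sequenced. PSI runs from 0 (unstable) to 1 (stable), measured once in wild type and in the das1Δ or doa10Δ background.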

The test system of series [2] is Saccharomyces cerevisiae. As to the kind of experiment: protein stability index of tFT-peptide fusion in wild type (PSI (0-1 scale)); higher = more stable (slower turnover). The note with it: genetic background: wild type. As for the experimental part:
as §1

Series [3] concerns Saccharomyces cerevisiae. As to the kind of experiment: protein stability index of tFT-peptide fusion (C-terminal peptide) (PSI (0-1 scale)); higher = more stable (slower turnover). The note with it: temperature: 30 C. The procedure: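 MPS profiling in S. cerevisiae of the yeast C-terminome library: the last 12 aa of each annotated ORF are fused to the C-terminus of a sfGFP-mCherry timer, after a GGGS linker. Cells are FACS-sorted into 8 mCherry/sfGFP bins and deep-sequenced. PSI runs from 0 (unstable) to 1 (stable); wild type and das1Δ backgrounds, two technical replicates each.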

Where [4] appears, read: genetic background: das1 deletion.
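Wherever protein stability index of tFT-peptide fusion in deletion strain of DAS1 is given: PSI is a weighted mean of each variant's read distribution over the sorted stability bins, computed only for variants having over 10 reads in total.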
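Wherever protein stability index of tFT-peptide fusion in wild type is given: PSI derived as read-weighted mean over the 8 sorting bins, only variants exceeding 10 total reads kept, mCherry placed adjacent to the peptide and sfGFP distal.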

As for AMWRVGLWRGAS, the figures for the protein stability index in series [1] and in series [2] were 0.65 and 0.43, respectively.
Taken in the same sequence, the figures for AQWRVGLWRGAS were 0.709 and 0.499.
ARWREGLWRGAS: the protein stability index in series [1] came to 0.695; in series [2], 0.673.
Turning to ARWRVGCWRGAS, the protein stability index in series [1] came out at 0.637; in series [2], 0.524.
ARWRVGDWRGAS: the protein stability index in series [1] was found to be 0.714; in series [2], 0.665.
Turning to ARWRVGIWRGAS, the figures for the protein stability index in series [1] and in series [2] were 0.691 and 0.344, respectively.
Consider ARWRVGKWRGAS, for which the values for the protein stability index in series [1] and in series [2] were 0.687 and 0.327, respectively.
Consider ARWRVGLCRGAS, for which the protein stability index came to 0.671 in series [1] and 0.657 in series [2].
Take ARWRVGLHRGAS: the protein stability index in series [1] is 0.685; in series [2] it was 0.63.
Consider ARWRVGLIRGAS, for which the protein stability index in series [1] is 0.665; in series [2], 0.561.
Regarding ARWRVGLWLGAS, the protein stability index in series [1] stood at 0.618; in series [2], 0.467.
For ARWRVGLWMGAS the same measures were 0.667 and 0.622.
For the sequence VFQRAIEKALGE [STR2 C-terminal 12 aa], the protein stability index in series [3] (setting [4]) is 0.707 ± 0.011; in series [3] (genetic background: wild type) it was 0.716 ± 0.013.
As to VFSKKEPFPHSK [YJR084W C-terminal 12 aa], the protein stability index in series [3] (setting [4]) turned out to be 0.721 ± 0.019; in series [3] (genetic background: wild type), 0.771 ± 0.059.
Taken in the same sequence, the figures for VGITSVGTRGNY [YNL140C C-terminal 12 aa] were 0.674 ± 0.015 and 0.717 ± 0.097.
For the sequence VGNYFMAIQRLN [COQ3 C-terminal 12 aa], the protein stability index turned out to be 0.731 ± 0.025 in series [3] (setting [4]) and 0.16 ± 0.017 in series [3] (genetic background: wild type).
For VIASDESSHLSY [YHR127W C-terminal 12 aa] the same measures were 0.709 ± 0.017 and 0.699 ± 0.024.
Taken in the same sequence, the figures for VKDLYKRLTIQA [GPI1 C-terminal 12 aa] were 0.518 ± 0.018 and 0.0975 ± 0.0091.
For the sequence VKHAEYAINAFF [YPR147C C-terminal 12 aa], the protein stability index in series [3] (setting [4]) is 0.709 ± 0.018; in series [3] (genetic background: wild type) it was 0.682 ± 0.026.
Taken in the same sequence, the figures for VKHQPKTYRTKK [SGO1 C-terminal 12 aa] were 0.676 ± 0.015 and 0.677 ± 0.053.
Taken in the same sequence, the figures for VKRNKYPPRPVH [REF2 C-terminal 12 aa] were 0.704 ± 0.023 and 0.74 ± 0.0081.
In the case of VKSDSGSSCTIM [RHO3 C-terminal 12 aa], the protein stability index in series [3] (setting [4]) stood at 0.721 ± 0.011; in series [3] (genetic background: wild type), 0.711 ± 0.023.
Taken in the same sequence, the figures for VKTKFFPLSSSI [YDR199W C-terminal 12 aa] were 0.738 ± 0.02 and 0.716 ± 0.026.
Taken in the same sequence, the figures for “VKWKVLCDLGWT [YIL047C-A C-terminal 12 aa]” were 0.715 ± 0.023 and 0.708 ± 0.028.
Taken in the same sequence, the figures for VKYSRIIPPDIR [SUM1 C-terminal 12 aa] were 0.72 ± 0.017 and 0.69 ± 0.032.
Regarding VLDEEFRNNNAS [RAD26 C-terminal 12 aa], the protein stability index in series [3] (setting [4]) amounted to 0.716 ± 0.0098; in series [3] (genetic background: wild type), 0.69 ± 0.038.
For the sequence VLELSLGFTKLD [MON2 C-terminal 12 aa], the protein stability index in series [3] (setting [4]) was 0.7141 ± 0.0071; in series [3] (genetic background: wild type) it was 0.707 ± 0.041.
For VLFLEDNGFFVF [MET3 C-terminal 12 aa] the same measures were 0.765 ± 0.024 and 0.775 ± 0.037.
As for VLIKHDHTNTHI [MMT1 C-terminal 12 aa], the figures for the protein stability index in series [3] (setting [4]) and in series [3] (genetic background: wild type) were 0.703 ± 0.028 and 0.701 ± 0.034, respectively.
For VMEEEEQDCKCI [POP8 C-terminal 12 aa] the same measures were 0.6923 ± 0.00099 and 0.6519 ± 0.0055.
VMGQFLPIFEMD [GSM1 C-terminal 12 aa]: the protein stability index was 0.724 ± 0.031 in series [3] (setting [4]) and 0.713 ± 0.0046 in series [3] (genetic background: wild type).
Taken in the same sequence, the figures for VRILTKYPKILV [RIM101 C-terminal 12 aa] were 0.488 ± 0.021 and 0.5 ± 0.0066.
Taken in the same sequence, the figures for VSGKKFQNVRVL [YPL247C C-terminal 12 aa] were 0.705 ± 0.01 and 0.676 ± 0.04.

The values above are taken from the supplement of paper PMC10724198.
